Measured values published in patent US20260125469A1 (Hoffmann-La Roche, published 2026).

T1: human CD19 on cells (Nalm-6, Z-138) (human, UniProt P15391 20-556)
T1 construct: whole, on cells; also called CD19-expressing cells; CD19+ target cells
T1 sequence (looked up): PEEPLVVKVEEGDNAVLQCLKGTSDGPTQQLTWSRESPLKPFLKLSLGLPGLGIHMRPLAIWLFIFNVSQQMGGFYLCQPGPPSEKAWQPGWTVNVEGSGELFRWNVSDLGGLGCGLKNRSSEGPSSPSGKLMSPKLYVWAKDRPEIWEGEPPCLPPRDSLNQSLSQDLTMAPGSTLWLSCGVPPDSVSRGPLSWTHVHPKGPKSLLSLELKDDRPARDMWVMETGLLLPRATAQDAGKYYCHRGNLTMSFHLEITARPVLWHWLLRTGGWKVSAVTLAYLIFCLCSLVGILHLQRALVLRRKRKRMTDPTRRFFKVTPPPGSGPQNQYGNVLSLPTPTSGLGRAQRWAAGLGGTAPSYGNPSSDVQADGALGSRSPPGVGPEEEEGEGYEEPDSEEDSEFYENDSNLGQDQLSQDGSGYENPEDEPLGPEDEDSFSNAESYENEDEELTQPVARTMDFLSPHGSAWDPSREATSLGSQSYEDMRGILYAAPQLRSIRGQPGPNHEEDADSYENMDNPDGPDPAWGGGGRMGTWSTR


How the values were obtained:
[1] = molecular target: T1, human CD19 on cells (Nalm-6, Z-138); assay: flow cytometry on Nalm-6 cells
Description: (§1) The binding of the CD19-TCB molecules prepared in Example 15 to human CD19- and CD3-expressing target cells was tested. Two CD19-expressing cell lines with different levels of CD19 expression were used. Nalm-6, an acute lymphoblastic leukemia (ALL) cell line with high CD 19 expression and Z-138 (Mantle cell lymphoma) with average expression levels. CD3-binding was assessed using immortalized T lymphocyte line (Jurkat cell line). Briefly, cells were harvested, counted, checked for viability and resuspended at 1×10⁶ cells/ml in FACS buffer (PBS+2% FCS+5 mM EDTA+0.25% sodium azide). […] Binding curves and the EC50 values related to binding were calculated using GraphPad Prism 7.

[2] = molecular target: T2, Human CD3ε stalk-Fc(knob)-Avi/CD3δ stalk-Fc(hole) (human); assay: SPR, TCB captured by anti-PG antibody, human CD3ε/δ-Fc as analyte, 25°C
T2 construct: Heterodimer of CD3 delta and CD3 epsilon ectodomains fused to human Fc with knob-into-hole; also called human CD3ε/δ; CD3 antigen
Description: (§2) SPR experiments were performed, using the CD19-TCB molecules prepared in Example 15, on a Biacore T200 instrument at 25° C. with HBS-EP+ as running buffer (0.01 M HEPES pH 7.4, 0.15 M NaCl, 0.005% Surfactant P20 (GE Healthcare, #BR-1006-69)). Anti-PG antibody (see Example 3) was directly immobilized by amine coupling on a C1 chip (GE Healthcare). The different TCB molecules were captured at 25 nM. Three-fold dilution series (in HBS-EP from 0.14 to 100 nM) of the CD19 antigen (CD19 extracellular domain (ECD)-Fc fusion; see SEQ ID NOs 99 and 100) or the CD3 antigen (see Example 3, SEQ ID NOs 41 and 42) were passed over the ligand at 30 μl/min for 240 s to record the association phase. The dissociation phase was monitored for 1500 s (CD19 antigen) or 800 s (CD3 antigen)s and triggered by switching from the sample solution to HBS-EP+. The chip surface was regenerated after every cycle using two injections of 10 mM glycine pH 2.1 for 60 sec. Bulk refractive index differences were corrected for by subtracting the response obtained on the reference flow cell (without captured TCB). The affinity constants were derived from the kinetic rate constants by fitting to a 1:1 Langmuir binding using the Biaeval software (GE Healthcare). The measurement was performed with three independent dilution series.

[3] = molecular target: T3, CD19 extracellular domain (ECD)-Fc fusion (human, UniProt P01857 104-328 = IgG part); assay: SPR, TCB captured by anti-PG antibody, CD19 ECD-Fc as analyte, 25°C
T3 construct: Monovalent CD19 ECD on a knob-into-hole Fc; also called CD19 antigen; recombinant human CD19
Description: as §2

[4] = molecular target: T4, human CD3 on cells (CD3ε) (human, UniProt P07766 23-207); assay: flow cytometry on Jurkat cells
T4 construct: CD3 complex as it stands on Jurkat cells or primary T cells; also called CD3-expressing Jurkat cells; CD3-expressing T cells
Description: as §1

[5] = molecular target: T1, human CD19 on cells (Nalm-6, Z-138); assay: cell-based or functional assay
[6] = molecular target: T2, Human CD3ε stalk-Fc(knob)-Avi/CD3δ …; assay: SPR, monovalent IgG captured by anti-PG antibody, antigen as analyte, 25°C
Description: (§3) SPR experiments were performed as described in Example 3, with the monovalent IgG molecules prepared in Example 19.
(§4) To analyze the interaction to CD3, IgG molecules were captured for 240 s at 50 nM with a flow rate of 5 μl/min. Human and cynomolgus CD3F stalk-Fc(knob)-Avi/CD36-stalk-Fc(hole) were passed at a concentration of 0.061-250 nM with a flow rate of […] through the flow cells for 300 s. The dissociation was monitored for 800 s.

[7] = molecular target: T5, Cynomolgus CD3ε stalk-Fc(knob)-Avi/CD3δ stalk-Fc(hole) (cynomolgus); assay: as above
T5 construct: also called cynomolgus CD3ε/δ
Description: as §3, §4

[8] = molecular target: T2, Human CD3ε stalk-Fc(knob)-Avi/CD3δ …; assay: SPR on immobilized human CD3ε/δ after stress, relative to sample kept at -80°C pH 6
Description: All SPR experiments were performed on a Biacore T200 instrument (GE Healthcare) at 25° C. with HBS-P+ (10 mM HEPES, 150 mM NaCl pH 7.4, 0.05% Surfactant P20) as running and dilution buffer. Biotinylated human CD3ε/δ (see Example 3, SEQ ID NOs 41 and 42) as well as biotinylated anti-huIgG (Capture Select, Thermo Scientific, #7103262100) were immobilized on a Series S Sensor Chip SA (GE Healthcare, #29104992), resulting in surface densities of at least 1000 resonance units (RU). Anti-CD3 antibodies with a concentration of 2 μg/ml were injected for 30 s at a flow rate of 5 μl/min, and dissociation was monitored for 120 s. The surface was regenerated by injecting 10 mM glycine pH 1.5 for 60 s. Bulk refractive index differences were corrected by subtracting blank injections and by subtracting the response obtained from a blank control flow cell. For evaluation, the binding response 5 seconds after injection end was taken. To normalize the binding signal, the CD3 binding was divided by the anti-huIgG response (the signal (RU) obtained upon capture of the CD3 antibody on the immobilized anti-huIgG antibody). The relative binding activity was calculated by referencing each temperature stressed sample to the corresponding, non-stressed sample.
The experiment was performed as described in Example 4, using the monovalent IgG molecules prepared in Example 19.

T4 sequence (P07766 23-207 limits assumed): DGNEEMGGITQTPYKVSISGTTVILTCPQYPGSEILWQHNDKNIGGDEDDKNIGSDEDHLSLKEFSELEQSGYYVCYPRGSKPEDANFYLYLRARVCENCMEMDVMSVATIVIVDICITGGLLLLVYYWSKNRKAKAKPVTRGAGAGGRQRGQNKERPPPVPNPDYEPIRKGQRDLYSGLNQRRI

| Binder | EC50 [1] [nM] | Kd [2] [nM] | koff [2] [s⁻¹] | kon [2] [M⁻¹ s⁻¹] | t1/2 [2] [min] | Kd [3] [nM] | koff [3] [s⁻¹] | kon [3] [M⁻¹ s⁻¹] | t1/2 [3] [min] | EC50 [4] [nM] | Kd [6] [nM] | koff [6] [s⁻¹] | kon [6] [M⁻¹ s⁻¹] | t1/2 [6] [min] | binding activity [%] after 2 weeks at pH 6.0/40°C [8] [%] | binding activity [%] after 2 weeks at pH 7.4/37°C [8] [%] | other results |
| --- | --- | --- | --- | --- | --- | --- | --- | --- | --- | --- | --- | --- | --- | --- | --- | --- | --- |
| CD19-TCB, CD19(018) CD3orig (bispecific antibody, human IgG1, kappa, L234A L235A, 2+1 IgG CrossFab, inverted; human IgG1 Fc, knob-into-hole, PGLALA) heavy 1: not shown heavy 2: QVQLVQSGAEVKKPGASVKVSCKASGYTFTDYIMHWVRQAPGQGLEWMGYINPYNDGSKYTEKFQGRVTMTSDTSISTAYMELSRLRSDDTAVYYCARGTYYYGSALFDYWGQGTTVTVSSASTKGPSVFPLAPSSKSTSGGTAALGCLVEDYFPEPVTVSWNSGALTSGVHTFPAVLQSSGLYSLSSVVTVPSSSLGTQTYICNVNHKPSNTKVDEKVEPKSCDKTHTCPPCPAPEAAGGPSVFLFPPKPKDTLMISRTPEVTCVVVDVSHEDPEVKFNWYVDGVEVHNAKTKPREEQYNSTYRVVSVLTVLHQDWLNGKEYKCKVSNKALGAPIEKTISKAKGQPREPQVCTLPPSRDELTKNQVSLSCAVKGFYPSDIAVEWESNGQPENNYKTTPPVLDSDGSFFLVSKLTVDKSRWQQGNVFSCSVMHEALHNHYTQKSLSLSP light 1: DIVMTQTPLSLSVTPGQPASISCKSSQSLENPNGNTYLNWYLQKPGQSPQLLIYRVSKRFSGVPDRFSGSGSGTDFTLKISRVEAEDVGVYYCLQLTHVPYTFGQGTKLEIKRTVAAPSVFIFPPSDRKLKSGTASVVCLLNNFYPREAKVQWKVDNALQSGNSQESVTEQDSKDSTYSLSSTLTLSKADYEKHKVYACEVTHQGLSSPVTKSFNRGEC light 2: EVQLLESGGGLVQPGGSLRLSCAASGFTFSTYAMNWVRQAPGKGLEWVSRIRSKYNNYATYYADSVKGRFTISRDDSKNTLYLQMNSLRAEDTAVYYCVRHGNFGNSYVSWFAYWGQGTLVTVSSASVAAPSVFIFPPSDEQLKSGTASVVCLLNNFYPREAKVQWKVDNALQSGNSQESVTEQDSKDSTYSLSSTLTLSKADYEKHKVYACEVTHQGLSSPVTKSFNRGEC | 1.5 | 3.57 | 0.00333 | 933000 | 3.5 | 0.95 | 0.000316 | 333000 | 36.6 | 115 |  |  |  |  |  |  | EC50 (pM) of tumor cell lysis, Nalm-6 target cells [5]: 0.3 pM; EC50 (pM) of tumor cell lysis, Z-138 target cells [5]: 5.4 pM |
| CD19-TCB, CD19(2B11) CD3 variant P035.093 (bispecific antibody, human IgG1, kappa, L234A L235A, 2+1 IgG CrossFab, inverted; human IgG1 Fc, knob-into-hole, PGLALA) heavy 1: not shown heavy 2: QVQLVQSGAEVKKPGASVKVSCKASGYTFTDYIMHWVRQAPGQGLEWMGYINPYNDGSKYTEKFQGRVTMTSDTSISTAYMELSRLRSDDTAVYYCARGTYYYGPQLFDYWGQGTTVTVSSASTKGPSVFPLAPSSKSTSGGTAALGCLVEDYFPEPVTVSWNSGALTSGVHTFPAVLQSSGLYSLSSVVTVPSSSLGTQTYICNVNHKPSNTKVDEKVEPKSCDKTHTCPPCPAPEAAGGPSVFLFPPKPKDTLMISRTPEVTCVVVDVSHEDPEVKFNWYVDGVEVHNAKTKPREEQYNSTYRVVSVLTVLHQDWLNGKEYKCKVSNKALGAPIEKTISKAKGQPREPQVCTLPPSRDELTKNQVSLSCAVKGFYPSDIAVEWESNGQPENNYKTTPPVLDSDGSFFLVSKLTVDKSRWQQGNVFSCSVMHEALHNHYTQKSLSLSP light 1: DIVMTQTPLSLSVTPGQPASISCKSSQSLETSTGTTYLNWYLQKPGQSPQLLIYRVSKRFSGVPDRFSGSGSGTDFTLKISRVEAEDVGVYYCLQLLEDPYTFGQGTKLEIKRTVAAPSVFIFPPSDRKLKSGTASVVCLLNNFYPREAKVQWKVDNALQSGNSQESVTEQDSKDSTYSLSSTLTLSKADYEKHKVYACEVTHQGLSSPVTKSFNRGEC light 2: EVQLLESGGGLVQPGGSLRLSCAASGFTFSSYAMNWVRQAPGKGLEWVSRIRSKYNNYATYYADSVKGRFTISRDDSKNTLYLQMNSLRAEDTAVYYCVRASNFPASYVSYFAYWGQGTLVTVSSASVAAPSVFIFPPSDEQLKSGTASVVCLLNNFYPREAKVQWKVDNALQSGNSQESVTEQDSKDSTYSLSSTLTLSKADYEKHKVYACEVTHQGLSSPVTKSFNRGEC | 0.6 | 0.38 | 0.00135 | 3.56e+06 | 8.6 | 0.32 | 0.000146 | 458000 | 79.1 | 22.3 |  |  |  |  |  |  |  |
| anti-CD3 antibody clone P035.093 in monovalent IgG format (antibody, also called monovalent IgG P035.093) heavy: not shown DKTHTCPPCPAPEAAGGPSVFLFPPKPKDTLMISRTPEVTCVVVDVSHEDPEVKFNWYVDGVEVHNAKTKPREEQYNSTYRVVSVLTVLHQDWLNGKEYKCKVSNKALGAPIEKTISKAKGQPREPQVCTLPPSRDELTKNQVSLSCAVKGFYPSDIAVEWESNGQPENNYKTTPPVLDSDGSFFLVSKLTVDKSRWQQGNVFSCSVMHEALHNHYTQKSLSLSP light: EVQLLESGGGLVQPGGSLRLSCAASGFTFSSYAMNWVRQAPGKGLEWVSRIRSKYNNYATYYADSVKGRFTISRDDSKNTLYLQMNSLRAEDTAVYYCVRASNFPASYVSYFAYWGQGTLVTVSSASVAAPSVFIFPPSDEQLKSGTASVVCLLNNFYPREAKVQWKVDNALQSGNSQESVTEQDSKDSTYSLSSTLTLSKADYEKHKVYACEVTHQGLSSPVTKSFNRGEC |  |  |  |  |  |  |  |  |  |  | 0.456 | 0.0014 | 3.08e+06 | 8.25 | 100 | 93 | Kd [7]: 0.224 nM; koff [7]: 0.000981 s⁻¹; kon [7]: 4.38e+06 M⁻¹ s⁻¹; t1/2 [7]: 11.8 min |
| CD3orig in monovalent IgG format (antibody, also called monovalent IgG CD3orig) heavy: not shown DKTHTCPPCPAPEAAGGPSVFLFPPKPKDTLMISRTPEVTCVVVDVSHEDPEVKFNWYVDGVEVHNAKTKPREEQYNSTYRVVSVLTVLHQDWLNGKEYKCKVSNKALGAPIEKTISKAKGQPREPQVCTLPPSRDELTKNQVSLSCAVKGFYPSDIAVEWESNGQPENNYKTTPPVLDSDGSFFLVSKLTVDKSRWQQGNVFSCSVMHEALHNHYTQKSLSLSP light: EVQLLESGGGLVQPGGSLRLSCAASGFTFSTYAMNWVRQAPGKGLEWVSRIRSKYNNYATYYADSVKGRFTISRDDSKNTLYLQMNSLRAEDTAVYYCVRHGNFGNSYVSWFAYWGQGTLVTVSSASVAAPSVFIFPPSDEQLKSGTASVVCLLNNFYPREAKVQWKVDNALQSGNSQESVTEQDSKDSTYSLSSTLTLSKADYEKHKVYACEVTHQGLSSPVTKSFNRGEC |  |  |  |  |  |  |  |  |  |  | 4.94 | 0.0029 | 587000 | 3.98 | 97 | 60 |  |
